What was measured:
ICAM-1^D1D5-Fc [1] = target: ICAM-1^D1D5-Fc (UniProt P05362); assay: SPR; ICAM-1^D1D5-Fc immobilized to 850 RU on a CM5 chip precoupled with Protein A; IT4var13 DBLβ proteins 0.9 nM to 250 nM injected at 30 µL/min, 240 s association, 600 s dissociation; 20 mM Hepes, 300 mM NaCl, 0.005% Tween 20, pH 7.2; Biacore T200; global fit to a 2-state reaction model
ICAM-1^D1D5-Fc [2] = target: ICAM-1^D1D5-Fc (UniProt P05362); assay: SPR; settings: for response: top curve of the dilution series (500 nM), read at end of injection (~300 s), parent: est. 240, read off a plot

Chain of ICAM-1^D1D5-Fc (P05362 28-480): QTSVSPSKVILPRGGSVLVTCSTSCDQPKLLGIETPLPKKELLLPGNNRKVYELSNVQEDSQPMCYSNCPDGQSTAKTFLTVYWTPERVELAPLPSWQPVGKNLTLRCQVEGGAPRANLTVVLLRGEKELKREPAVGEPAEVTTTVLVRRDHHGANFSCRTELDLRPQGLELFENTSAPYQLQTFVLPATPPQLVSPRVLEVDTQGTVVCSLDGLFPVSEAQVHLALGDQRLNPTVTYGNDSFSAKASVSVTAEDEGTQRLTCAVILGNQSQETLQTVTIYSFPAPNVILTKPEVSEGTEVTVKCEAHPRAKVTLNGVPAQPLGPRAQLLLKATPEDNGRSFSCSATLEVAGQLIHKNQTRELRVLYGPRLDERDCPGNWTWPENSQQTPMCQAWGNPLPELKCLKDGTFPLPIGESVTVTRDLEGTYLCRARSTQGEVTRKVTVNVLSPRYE

| Substance | response (ICAM-1^D1D5-Fc [2]) [RU] | further results |
| --- | --- | --- |
| IT4var13 DBLβ Q1103A (domain or fragment) |  | fold decrease in affinity against wild type (ICAM-1^D1D5-Fc [1]): 200 fold |
| IT4var13 DBLβ domain (wild type) (domain or fragment) |  | Kd (ICAM-1^D1D5-Fc [2]): 1.22 nM |
| J1a DBLβ domain (wild type) G1117A | 35 |  |
| J1a DBLβ domain (wild type) L1093D | 260 |  |
| J1a DBLβ domain (wild type) L1096D | 140 |  |
| J1a DBLβ domain (wild type) Y1097A | 25 |  |
